These binders were tested against Human IgG (Calbiochem; San Diego Calif.) (human) (assay: IgG displaced from peptide pin; competitor MSP1-19).
CKCLL [Peptide# 28] showed a ΔF (%) of less than 5%.
SQHQC [Peptide# 3] was tested, and the ΔF (%) was less than 5%.
NISQH [Peptide# 1] was tested, and the ΔF (%) was less than 5%.
Work on NSGCF [Peptide# 15] yielded a ΔF (%) of less than 5%.
In the case of LLNYK [Peptide# 31], the ΔF (%) is reported as less than 5%.
For NYKQE [Peptide# 33], the ΔF (%) was less than 5%.
YKQEG [Peptide# 34] was tested, and the ΔF (%) was less than 5%.
CPQNS [Peptide# 12] was tested, and the ΔF (%) was less than 5%.
Binder ISQHQ [Peptide# 2] has a ΔF (%) of less than 5%.
SGCFR [Peptide# 16] showed a ΔF (%) of less than 5%.
FRHLD [Peptide# 19] was tested, and the ΔF (%) was less than 5%.
Binder CLLNY [Peptide# 30] has a ΔF (%) of less than 5%.
With ECKCL [Peptide# 27] the ΔF (%) was less than 5%.
Binder GDKCV [Peptide# 38] has a ΔF (%) of less than 5%.
With RHLDE [Peptide# 20] the ΔF (%) was less than 5%.
In the case of LNYKQ [Peptide# 32], the ΔF (%) is reported as less than 5%.
KQCPQ [Peptide# 10] showed a ΔF (%) of less than 5%.
HLDER [Peptide# 21] gave a ΔF (%) of less than 5%.
PQNSG [Peptide# 13] was tested, and the ΔF (%) was less than 5%.
In the case of REECK [Peptide# 25], the ΔF (%) is reported as less than 5%.
Binder KCLLN [Peptide# 29] has a ΔF (%) of less than 5%.
LDERE [Peptide# 22] was tested, and the ΔF (%) was less than 5%.
Binder QNSGC [Peptide# 14] has a ΔF (%) of less than 5%.
EREEC [Peptide# 24] gave a ΔF (%) of less than 5%.
In the case of DKCVE [Peptide# 39], the ΔF (%) is reported as less than 5%.
Work on QEGDK [Peptide# 36] yielded a ΔF (%) of less than 5%.
EECKC [Peptide# 26] gave a ΔF (%) of less than 5%.
CFRHL [Peptide# 18] was tested, and the ΔF (%) was less than 5%.
For DEREE [Peptide# 23], the ΔF (%) was less than 5%.
For GCFRH [Peptide# 17], the ΔF (%) was less than 5%.
For KQEGD [Peptide# 35], the ΔF (%) was less than 5%.
EGDKC [Peptide# 37] gave a ΔF (%) of less than 5%.
QCPQN [Peptide# 11] gave a ΔF (%) of less than 5%.

Source: patent publication US20060099648A1, “Compositions and methods for epitope mapping” (priority 2000, published 2006)
